Patent US6084072A, “Purified lectin and methods of use” (The Regents of the University of Michigan, priority 1993, dated 2000)
Where “and” joins values, the source holds several entries; their conditions need not be identical. Equal values may be shown once.

Legend:
amaranthin = amaranthin (Amaranthus caudatus, UniProt Q71QF2); test: Precipitation of amaranthin by glycoproteins and glycoconjugates, native or glycosidase treated; format: binding; details: untreated glycoprotein or glycoconjugate; 80 μg amaranthin
Procedure: Glycosidase digestions, and in particular exo-β-galactosidase digestions were carried out for 9 hours at 37° C. in 0.1 M sodium citrate, pH 4.3 using 0.1 unit of enzyme/μmol of terminal galactosyl group. Endo-α-N-acetylgalactosaminidase treatment of asialo-ovine submaxillary mucin was done as described in Sadler, J. E., Rearick, J. L., Paulson, J. C., and Hill, R. L. (1979). GSC Exo-α-N-acetylgalactosaminidase digestion of asialo-ovine submaxillary mucin was carried out according to the recommendations of Genzyme of Boston, Mass. Glycoproteins were analyzed for carbohydrate composition, before and after glycosidase treatment, as described.
Precipitation assays were conducted in 1.5 ml centrifuge tubes by the method of So and Goldstein. Indicated amounts of glycoprotein were added to 80 μg of amaranthin, and the total volume was adjusted to 250 μl with phosphate buffered saline. The tubes were incubated at 37° C. and then kept at 4° C. for 2 days. The precipitates were centrifuged, washed with cold Phosphate buffered saline, dissolved in 0.05 N NaOH and analyzed for protein by the method of Lowery et al. using bovine serum albumin as the standard. […] Inhibition was determined relative to the amount of precipitate formed in the control with no sugar added. […]

[1] = test system: well differentiated colonic adenocarcinoma sections; test: Inhibition of lectin binding with hapten sugars on tissue sections; parameters: species or system human; key to Labeling score: 4^+: Maximum labeling of the brown reaction product; 0: No staining of the slide compared to control sections; 1^+: trace or weak staining definitely not seen on control slides; 2+3^+: stronger staining, but definitely less than maximal
Procedure: Four micron paraffin embedded tissue sections attached to glass slides were deparaffinized by serial incubations in xylene (twice), absolute ethanol (thrice), 95% ethanol, 70% ethanol, water and finally equilibrated in phosphate buffered saline (PBS), pH 7.0, containing 0.1% bovine serum albumin (BSA) commercially available from Sigma Corp of St. Louis, Mo. The slides were blotted dry adjacent to the tissue sections, and biotinylated lectin was added at a concentration of 10 μg/ml (for ACA) and 20 μg/ml (for PNA) in a quantity sufficient to completely cover the hydrated tissue (100-2001 μl). The lectin was rinsed off after a 30 minute incubation by eight 2-second dips into phosphate buffered saline. The slides were again blotted, and the tissue covered with Streptavidin-horseradish peroxidase (HRP) obtained from Zymed Laboratories, San Francisco, Calif. at a concentration of 10 μg/ml for 30 minutes. The slides were rinsed as mentioned above, and the pigmented reaction product developed by the addition of a freshly prepared chromogen reagent solution prepared within two hours of use as follows.
3,3'-diaminobenzidine was aliqotted at 5 mg/mL in 0.01 M (Tris) tris hydroxy methyl amino methane saline, pH 7.5 and frozen at -70° C. until use. For use, the aliquot was thawed, diluted 1:10 in 0.01 M (Tris) tris hydroxy methyl amino methane saline pH 7.5, and 3.3 μL of 30% H2 O2 were added to each 5 ml. This solution was allowed to stand for 10 min, and 100-200 μl was applied to the tissue sections that had been incubated earlier with biotinylated lectin and Streptavidin-HRP. After 10 min, the slides were rinsed with albumin-free phosphate buffered saline. The tissues were briefly counterstained for 50 seconds with Gill's #3 hematoxylin bovine serum albumin, commercially available from Sigma Corp. of St. Louis, Mo., rinsed with water, and serially dehydrated using graded alcohols and xylene, and embedded in Permount, a trademarked, commercially available product of Allied-Fischer Scientific of Livonia, Mich.
The specificity of lectin binding was evaluated by preincubating the biotinylated lectin with inhibitory hapten sugar for 1-2 hours prior to its application to the tissue. In each instance, the reagents were prepared so that the final concentration of lectin on the slide was either 10 or 20 μg/ml and the hapten sugar was as indicated in the results. Galactose, lactose, GalNAc, and galactose-β1-3N-acetylgalactosamine-α-O-benzyl (T-antigen-α-O-benzyl) were also obtained from Sigma Corp.
The stained sections were examined with a light microscope using a 25× and 40× objective lenses and 10× eyepiece. Evaluation of lectin binding required the use of several approaches. First, the binding specificity was confirmed by coincubation of lectin with hapten sugars known to bind the lectin maximally. Maximum labeling of the brown reaction product was arbitrarily assigned a score 4^+. See Boland, C. R., Bresalier, R. S., and Roberts, J. A. "Assay of lectin binding sites in colonic cancer-associated mucins: comparison of fluorescence microscopy with a quantitative chromatographic technique." J. Histochem. Cytochem., 36: 1329-1334, 1988. No staining of the slide compared to control sections (i.e., in which lectin was omitted from the staining procedure) was assigned a score of 0. Intermediate scores of 1^+ (trace or weak staining definitely not seen on control slides) and 2+3^+ (stronger staining, but definitely less than maximal) were assigned. […] See Boland. This method was used to confirm the binding specificity to known "positive" tissues and to evaluate changes in lectin binding after neuraminidase treatment.
Specimens of well differentiated colonic cancers were incubated with biotinylated lectins. Working concentrations on the slide were 10 μg/ml for ACA and 20 μg/ml for PNA. The hapten sugars galactose (Gal), N-acetylgalactosamine (GalNAc), and Galβ1,3GalNAc-α-O-benzyl (T-antigen) were used to inhibit lectin binding to the tissues. […]

[2] = test system: normal colonic epithelium; format: binding, human
colonic adenocarcinoma = format: binding, human; details: cancer specimens
FAP colonic tissue = test: Lectin histochemistry, familial adenomatous polyposis (FAP) colonic tissue; format: binding, human; details: biotinylated ACA 10 μg/mL or PNA 20 μg/mL
Source text: Full thickness specimens of colonic tissue were obtained from colectomy specimens for familial adenomatous polyposis at Johns Hopkins Hospital, fixed in formalin, and embedded in paraffin for tissue sectioning. The tissue specimens contained normal-appearing flat mucosa familial adenomatous polyposis, or FAP-normal, as well as a polypoid, adenomatious tissue familial adenomatous polyposis, or FAP-abnormal.
(§1) Four micron paraffin embedded tissue sections attached to glass slides were deparaffinized by serial incubations in xylene (twice), absolute ethanol (thrice), 95% ethanol, 70% ethanol, water and finally equilibrated in phosphate buffered saline (PBS), pH 7.0, containing 0.1% bovine serum albumin (BSA) commercially available from Sigma Corp of St. Louis, Mo. The slides were blotted dry adjacent to the tissue sections, and biotinylated lectin was added at a concentration of 10 μg/ml (for ACA) and 20 μg/ml (for PNA) in a quantity sufficient to completely cover the hydrated tissue (100-2001 μl). The lectin was rinsed off after a 30 minute incubation by eight 2-second dips into phosphate buffered saline. […]
Therefore, each individual crypt of Lieberkuhn was given a score from 0-4^+, and the labeling was expressed as a "weighted average", or, the sum of scores from 100 crypts, which could range from 0 (all crypts not labeled) to 400 (all 100 crypts maximally labeled). […]

HNPCC tissues = test: Lectin histochemistry, HNPCC rectal biopsies; format: binding, human; details: biotinylated ACA 10 μg/mL or PNA 20 μg/mL
Source text: Rectal biopsies were obtained from individuals who were first degree relatives of patients with hereditary nonpolyposis colorectal cancer (HNPCC) as identified by H. T. Lynch, M.D. These patients were the siblings or offspring of index patients who fit the criteria for Lynch Syndrome I or II. See Drzeniek, Z., and Usowska, E. (1979) Arch. Immunol Ther. Exp. 27, 253-262. However, since there is no definitive genetic or phenotypic marker for this familial syndrome, it is not possible to be certain that these patients represent a single homogenous genetic abnormality. The biopsies were fixed in formalin, and embedded in paraffin for tissue sectioning.
as §1

[3] = test system: human red blood cells (A, B, and O); details: see Lotan; cited from earlier work

Chain of amaranthin (Q71QF2 entry or part of it): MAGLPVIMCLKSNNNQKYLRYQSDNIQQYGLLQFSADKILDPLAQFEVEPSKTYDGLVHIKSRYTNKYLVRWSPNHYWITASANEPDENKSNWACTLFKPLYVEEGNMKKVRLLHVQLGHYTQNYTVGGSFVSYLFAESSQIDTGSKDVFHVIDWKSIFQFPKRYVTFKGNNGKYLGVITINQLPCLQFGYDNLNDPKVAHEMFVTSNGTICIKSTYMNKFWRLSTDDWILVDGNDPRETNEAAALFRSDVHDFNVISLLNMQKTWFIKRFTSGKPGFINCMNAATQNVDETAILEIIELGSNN

B1: asialoglycophorin: desialylated glycophorin (protein, UniProt P02724 20-150, looked up)
Glycophorin-A: LSTTEVAMHTSTSSSVTKSYISSQTNDTHKRDTYAATPRAHEVSEISVRTVYPPEEETGERVQLAHHFSEPEITLIIFGVMAGVIGTILLISYGIRRLIKKSPSDVKPLPSPDTDVPLSSVEIENPETSDQ
modifications: desialylated
notes: desialylated glycophorin
precipitation of amaranthin, in words (amaranthin): most active precipitating agent

B2: glycophorin: native glycophorin, major component of red blood cell membranes (protein, UniProt P02724 20-150, looked up)
Glycophorin-A: LSTTEVAMHTSTSSSVTKSYISSQTNDTHKRDTYAATPRAHEVSEISVRTVYPPEEETGERVQLAHHFSEPEITLIIFGVMAGVIGTILLISYGIRRLIKKSPSDVKPLPSPDTDVPLSSVEIENPETSDQ
precipitation of amaranthin, in words (amaranthin): small amount of precipitate

B3: PNA: peanut (Arachis hypogaea) agglutinin, T-antigen binding lectin (protein, UniProt P02872 24-273, looked up)
Galactose-binding lectin: AETVSFNFNSFSEGNPAINFQGDVTVLSNGNIQLTNLNKVNSVGRVLYAMPVRIWSSATGNVASFLTSFSFEMKDIKDYDPADGIIFFIAPEDTQIPAGSIGGGTLGVSDTKGAGHFVGVEFDTYSNSEYNDPPTDHVGIDVNSVDSVKTVPWNSVSGAVVKVTVIYDSSTKTLSVAVTNDNGDITTIAQVVDLKAKLPERVKFGFSASGSLGGRQIHLIRSWSFTSTLITTTRRSIDNNEKKIMNMASA
GalNAc concentration that inhibited labeling [1]: ≥ 100 mM
T-antigen concentration that inhibited labeling [1]: ≥ 100 µM
galactose concentration that inhibited labeling [1]: ≥ 10 mM
lactose concentration that inhibited labeling [1]: ≥ 10 mM
Labeling score ([1]; Gal 2.5 mM): Trace
Labeling score ([1]; Gal 10 mM): 0
Labeling score ([1]; Gal 20 mM): 0
Labeling score ([1]; Gal 100 mM): 0
Labeling score ([1]; Gal 400 mM): 0
Labeling score ([1]; GalNAc 100 mM): 0
Labeling score ([1]; GalNAc 250 mM): 0
Labeling score ([1]; Lactose 200 mM): 0
Labeling score ([1]; Lactose 400 mM): 0
Labeling score ([1]; T-antigen 100 μM): 0
Labeling score ([1]; T-antigen 200 μM): 0
Labeling score ([1]; T-antigen 400 μM): 0
Effect of neuraminidase treatment on labeling [2]: did not produce an increase
Labeling of normal colon in the tissue survey [2]: No labeling
Staining (global score 0-3+) ([2]; biotinylated ACA 10 μg/mL or PNA 20 μg/mL): does not bind and 0
Effect of Newcastle disease virus neuraminidase on labeling (colonic adenocarcinoma): much less effect
Effect of V. Cholerae neuraminidase on labeling (colonic adenocarcinoma): greatly enhanced
Staining (global score 0-3+) (FAP colonic tissue): does not bind and 0
Staining (global score 0-3+) (HNPCC tissues): rarely binds and 0 and 1^+
agglutination of native A, B, or O red blood cells, in words [3]: does not agglutinate
